In US20260167721A1 (ABLEXIS, published 2026):

B1: CD3 × CD33-BspAb38 (bispecific antibody)
chain 1: not shown
chain 2: EVQLVQSGAEVKKPGSSVKVSCKASGYTITDSNIHWVRQAPGQSLEWIGYIYPYNGGTDYNQKFKNRATLTVDNPTNTAYMELSSLRSEDTAFYYCVNGNPWLAYWGQGTLVTVSSASTKGPSVFPLAPSSKSTSGGTAALGCLVKDYFPEPVTVSWNSGALTSGVHTFPAVLQSSGLYSLSSVVTVPSSSLGTQTYICNVNHKPSNTKVDKRVEPKSCDKTHTCPPCPAPEFEGGPSVFLFPPKPKDTLMISRTPEVTCVVVDVSHEDPEVKFNWYVDGVEVHNAKTKPREEQYNSTYRVVSVLTVLHQDWLNGKEYKCKVSNKALPASIEKTISKAKGQPREPQVCTLPPSREEMTKNQVSLSCAVKGFYPSDIAVEWESNGQPENNYKTTPPVLDSDGSFFLVSKLTVDKSRWQQGNVFSCSVMHEALHNRFTQKSLSLSPGK
chain 3: DIQLTQSPSTLSASVGDRVTITCRASESLDNYGIRFLTWFQQKPGKAPKLLMYAASNQGSGVPSRFSGSGSGTEFTLTISSLQPDDFATYYCQQTKEVPWSFGQGTKVEVKRTVAAPSVFIFPPSDEQLKSGTASVVCLLNNFYPREAKVQWKVDNALQSGNSQESVTEQDSKDSTYSLSSTLTLSKADYEKHKVYACEVTHQGLSSPVTKSFNRGEC
B2: CD3 × CD33-BspAb52 (bispecific antibody)
chain 1: not shown
chain 2: B1 chain 2
chain 3: B1 chain 3
B3: CD3 × CD33-BspAb45 (bispecific antibody)
chain 1: EVQLVESGGGLVQPGGSLRLSCAASGFTFSRYSMNWVRQAPGKCLEWVSYISSSSSSIYYADSVKGRFTISRDNAKNSLYLQMNSLRDEDTAVYYCARDRRATLDYWGQGTLVTVSSGGGGSGGGGSGGGGSGGGGSNFMLTQPHSVSESPGKTVTISCTRSSGSIASNYVQWYQQRPGSSPTTVIYEDNQRPSGVPDRFSGSIDSSSNSASLTISGLKTEDEADYYCQSYDSSNHVFGCGTKLTVLDKTHTCPPCPAPEFEGGPSVFLFPPKPKDTLMISRTPEVTCVVVDVSHEDPEVKFNWYVDGVEVHNAKTKPREEQYNSTYRVVSVLTVLHQDWLNGKEYKCKVSNKALPASIEKTISKAKGQPREPQVYTLPPCREEMTKNQVSLWCLVKGFYPSDIAVEWESNGQPENNYKTTPPVLDSDGSFFLYSKLTVDKSRWQQGNVFSCSVMHEALHNHYTQKSLSLSPGK
chain 2: B1 chain 2
chain 3: B1 chain 3
B4: CD3 × CD33-BspAb51 (bispecific antibody)
chain 1: not shown
chain 2: B1 chain 2
chain 3: B1 chain 3
B5: CD3 × CD33-BspAb72 (bispecific antibody)
chain 1: EVQLVESGGGLVQPGGSLRLSCAASGFTFSSYSMNWVRQAPGKCLEWVSYISSSSSTIYYADSVKGRFTISRDNAKNSLYLQMNSLRDEDTAVYYCARDGPVDYGMDVWGQGTTVTVSSGGGGSGGGGSGGGGSGGGGSSYELTQPPSVSVSPGQTARITCSGDALPKQYTYWYQQKPGQAPVLVIYKDSERPSGIPERFSGSSSGTTVTLTISGVQAEDEADYYCQSADSSGTYRVFGCGTKLTVLDKTHTCPPCPAPEFEGGPSVFLFPPKPKDTLMISRTPEVTCVVVDVSHEDPEVKFNWYVDGVEVHNAKTKPREEQYNSTYRVVSVLTVLHQDWLNGKEYKCKVSNKALPASIEKTISKAKGQPREPQVYTLPPCREEMTKNQVSLWCLVKGFYPSDIAVEWESNGQPENNYKTTPPVLDSDGSFFLYSKLTVDKSRWQQGNVFSCSVMHEALHNHYTQKSLSLSPGK
chain 2: B1 chain 2
chain 3: B1 chain 3
B6: CD3 × CD33-BspAb66 (bispecific antibody, human IgG1, kappa)
scFv: EVQLVESGGGLVQPGRSLRLSCAASGFTFDDYAMHWVRQAPGKGLEWVSGISWNSGSIGYADSVKGRFTISRDNAKNSLYLQMNSLRAEDTALYYCAKDSRGYGDYRLGGAYWGQGTLVTVSSGGGGSGGGGSGGGGSGGGGSEIVMTQSPATLSVSPGERATLSCRASQSVSSNLAWYQQKPGQAPRLLIYGASTRATGIPARFSGSGSGTEFTLTISSLQSEDFAVYYCQQYNNWPWTFGQGTKVEIKTSGPGGPDKTHTCPPCPAPEFEGGPSVFLFPPKPKDTLMISRTPEVTCVVVDVSHEDPEVKFNWYVDGVEVHNAKTKPREEQYNSTYRVVSVLTVLHQDWLNGKEYKCKVSNKALPASIEKTISKAKGQPREPQVYTLPPCREEMTKNQVSLWCLVKGFYPSDIAVEWESNGQPENNYKTTPPVLDSDGSFFLYSKLTVDKSRWQQGNVFSCSVMHEALHNHYTQKSLSLSPGK
heavy: B1 chain 2
light: B1 chain 3
B7: CD3 × CD33-BspAb73 (bispecific antibody)
chain 1: EVQLVESGGGLVKPGGSLRLSCAASGFTFSSYSMNWVRQAPGKCLEWVSSVNSRGSYIYYADSVKGRFTISRDNAKDSLYLQMNSLRADDTAVYYCARDRRELLLDYWGQGTLVTVSSGGGGSGGGGSGGGGSGGGGSSYELTQPPSVSVSPGQTARITCSGDALPKKYAYWYQQKSGQAPVLVIYEDSKRPSGIPERFSGSSSGTMATLTISGAQVEDEADYYCYSTDSSGNHSWVFGCGTKLTVLDKTHTCPPCPAPEFEGGPSVFLFPPKPKDTLMISRTPEVTCVVVDVSHEDPEVKFNWYVDGVEVHNAKTKPREEQYNSTYRVVSVLTVLHQDWLNGKEYKCKVSNKALPASIEKTISKAKGQPREPQVYTLPPCREEMTKNQVSLWCLVKGFYPSDIAVEWESNGQPENNYKTTPPVLDSDGSFFLYSKLTVDKSRWQQGNVFSCSVMHEALHNHYTQKSLSLSPGK
chain 2: B1 chain 2
chain 3: B1 chain 3
B8: ABL-CD3-64 (antibody, V domains shown)
VH: EVQVAESGGGLVKPGGSLRLSCAASGFTFSRYSMNWVRQAPGKGLEWVSSISSSGSYTYYADSVKGRFTISRDNAKNSLYLQMNSLRAEDTAVYYCVRERGKGAGMDVWGQGTTVTVSS
VL: NFMLTQPHSVSESPGKTVTISCTRSSGSIASNYVQWYQQRPGSSPTTVIYEDNQRPSGVPDRFSGSIDSSSNSASLTISGLKTEDEADYYCQSYDSSNRVFGGGTKLTVL
notes: mAb purified from hybridoma; chimeric AlivaMab IgG (human VH, CH1 and upper hinge; mouse middle hinge, CH2, CH3; human light chain)

These binders were tested against T1, human CD3 (on human Pan-T cells or donor PBMC) (human, UniProt P07766 23-207; P04234 22-171; P09693 23-182; P20963 22-164) (assay: cell-based or functional assay).
T1 sequence (P07766 23-207, chain 1 of 4): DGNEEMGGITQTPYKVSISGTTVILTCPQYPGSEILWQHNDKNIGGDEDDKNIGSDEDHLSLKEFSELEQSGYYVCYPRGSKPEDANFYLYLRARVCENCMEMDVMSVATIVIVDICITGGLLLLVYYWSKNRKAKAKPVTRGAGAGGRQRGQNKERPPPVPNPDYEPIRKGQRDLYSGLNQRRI
T1 sequence (P04234 22-171, chain 2 of 4): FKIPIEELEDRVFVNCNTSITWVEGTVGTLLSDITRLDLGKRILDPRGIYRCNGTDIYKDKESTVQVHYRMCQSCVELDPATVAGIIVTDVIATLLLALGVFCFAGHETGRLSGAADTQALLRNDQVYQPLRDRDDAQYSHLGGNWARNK
T1 sequence (P09693 23-182, chain 3 of 4): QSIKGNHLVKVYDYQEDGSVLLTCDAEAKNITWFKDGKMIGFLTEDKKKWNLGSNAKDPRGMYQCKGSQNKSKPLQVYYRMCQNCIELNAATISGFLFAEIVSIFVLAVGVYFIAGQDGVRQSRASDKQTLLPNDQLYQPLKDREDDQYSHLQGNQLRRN
T1 sequence (P20963 22-164, chain 4 of 4): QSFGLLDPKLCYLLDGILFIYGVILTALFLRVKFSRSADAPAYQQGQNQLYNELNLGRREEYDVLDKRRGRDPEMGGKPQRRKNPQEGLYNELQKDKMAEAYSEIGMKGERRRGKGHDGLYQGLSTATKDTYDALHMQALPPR

Row | Binder | RTCC Assay, Donor 0, EC50 [nM] | RTCC Assay, Donor 0, gMFI max [gMFI] | RTCC Assay, Donor 1, EC50 [nM] | RTCC Assay, Donor 1, gMFI max [gMFI] | RTCC Assay, Donor 2, EC50 [nM] | RTCC Assay, Donor 2, gMFI max [gMFI] | RTCC Assay, Donor 3, EC50 [nM] | RTCC Assay, Donor 3, gMFI max [gMFI]
1 | B1 | 1.49 | 23300 | 0.413 | 64800 | 0.717 | 50500 | 1.72 | 75800
2 | B2 | 5.21 | 16200 | 0.762 | 57800 | 2.28 | 37700 | 7.83 | 42700
3 | B3 | 0.03 | 23300 | 0.004 | 76100 | 0.012 | 55900 | 0.02 | 86700
4 | B4 | 0.2 | 28400 | 0.036 | 66900 | 0.05 | 55800 | 0.085 | 80600
5 | B5 | 5.36 | 21000 | 0.819 | 78100 | 2.43 | 54100 | 4.9 | 66200
6 | B6 | 2.92 | 29700 | 0.937 | 65800 | 1.85 | 53900 | 2.33 | 75900
7 | B7 | 0.086 | 15600 | 0.035 | 79900 | 0.089 | 56100 | 0.159 | 74000

These binders were tested against T2, recombinant human CD3 epsilon/gamma heterodimer (human, UniProt P07766 23-126; P09693 23-116) (assay: BLI (Octet), mAb 5 ug/mL on FAB2G sensor, hCD3 E/G 200-50 nM;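 note: antibodies purified from hybridoma supernatants, measured by Octet binding to recombinant human CD3 protein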).
T2 construct: Recombinant heterodimer used as analyte in Octet; also called hCD3 E/G
T2 sequence (P07766 23-126, chain 1 of 2): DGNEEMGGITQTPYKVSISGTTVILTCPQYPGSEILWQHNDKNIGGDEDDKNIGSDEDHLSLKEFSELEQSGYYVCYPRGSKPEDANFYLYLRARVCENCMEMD
T2 sequence (P09693 23-116, chain 2 of 2): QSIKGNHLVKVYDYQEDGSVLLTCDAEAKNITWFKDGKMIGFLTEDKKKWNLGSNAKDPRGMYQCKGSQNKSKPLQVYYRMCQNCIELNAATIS

Row | Binder | Kd [nM] | Response | koff [s⁻¹] | kon [M⁻¹ s⁻¹]
8 | B8 | 71.9 | 0.46 | 0.013 | 180000

Molecular target: T1, human CD3 (on human Pan-T cells or …)
Assay: cell-based or functional assay
Remark: another data set of the same source

Row | Binder | Cytokine Release Assay (IFNγ), Donor 0, EC50 [nM] | Cytokine Release Assay (IFNγ), Donor 0, gMFI max [gMFI] | Cytokine Release Assay (IFNγ), Donor 1, gMFI max [gMFI] | Cytokine Release Assay (IFNγ), Donor 2, EC50 [nM] | Cytokine Release Assay (IFNγ), Donor 2, gMFI max [gMFI] | Cytokine Release Assay (IFNγ), Donor 3, EC50 [nM] | Cytokine Release Assay (IFNγ), Donor 3, gMFI max [gMFI] | Cytokine Release Assay (IFNγ), Donor 1, EC50 [nM]
9 | B1 | 8.38 | 555000 | 4320 | 13.4 | 18000 | 6.38 | 98500 | 
10 | B2 |  | 6350 | 4220 |  | 4670 | 25.4 | 8060 | 
11 | B3 | 0.096 | 1.39e+06 | 4630 | 0.0684 | 26900 |  | 290000 | 
12 | B4 | 0.269 | 1.34e+06 | 10800 | 0.292 | 30600 | 0.214 | 355000 | 15.3
13 | B5 |  | 465000 | 4820 | 49.1 | 12200 |  | 82800 | 
14 | B6 | 12.9 | 1.25e+06 | 7650 | 22.9 | 28300 | 52.6 | 379000 | 
15 | B7 |  | 308000 | 4350 | 8.61 | 26900 | 4.64 | 198000 | 

The binders below were run against T3, recombinant human CD3 epsilon/delta heterodimer (human, UniProt P07766 23-126; P04234 22-105) (assay: BLI (Octet), mAb 5 ug/mL on FAB2G sensor, hCD3 E/D 200-50 nM).
T3 construct: Recombinant heterodimer used as analyte in Octet; also called hCD3 E/D; human CD3E/D
T3 sequence (P07766 23-126, stated change not applied, chain 1 of 2): as the sequence (P07766 23-126, chain 1 of 2) above
T3 sequence (P04234 22-105, stated change not applied, chain 2 of 2): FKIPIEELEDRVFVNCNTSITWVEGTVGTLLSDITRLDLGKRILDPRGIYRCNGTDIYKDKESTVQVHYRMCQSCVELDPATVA

Row | Binder | Kd [nM] | Response | koff [s⁻¹] | kon [M⁻¹ s⁻¹]
16 | B8 | 31.6 | 0.68 | 0.0054 | 171000
